From patent publication US20070128190A1 (GLENMARK PHARMACEUTICALS S A, published 2007) come the findings set out here.

Experiment [1] has as its target human α2 integrin with endogenous hamster β1 on CHO cells (human; hamster). Briefly: cell-based or functional assay.
Experiment [2] concerns the target rat α2β1 integrin on rat blood cells (rat, UniProt A0A0G2K470 27-1178; P49134 21-798). The experiment in a line: cell-based or functional assay.
Experiment [3] addresses T1, human platelet α2β1 integrin (immobilized on microtiter plates) (human, UniProt P17301 30-1181; P05556 21-798).
T1 construct: plates custom-coated with human platelet α2β1 by GTI Inc; also called immobilized α2β1 integrin; α2β1-coated plates
The experiment in a line: competition with Eu-TMC-2206 on platelet α2β1-coated plates.

For experiment [4], the target named is T1, human platelet α2β1 integrin …. The experiment in a line: competition with Eu-TMC-2206 on human platelet α2β1-coated plate.
Another experiment deals with T2, BSA (UniProt P02769 25-607).
T2 construct: also called BSA coated control wells
T2 sequence (P02769 25-607 limits assumed): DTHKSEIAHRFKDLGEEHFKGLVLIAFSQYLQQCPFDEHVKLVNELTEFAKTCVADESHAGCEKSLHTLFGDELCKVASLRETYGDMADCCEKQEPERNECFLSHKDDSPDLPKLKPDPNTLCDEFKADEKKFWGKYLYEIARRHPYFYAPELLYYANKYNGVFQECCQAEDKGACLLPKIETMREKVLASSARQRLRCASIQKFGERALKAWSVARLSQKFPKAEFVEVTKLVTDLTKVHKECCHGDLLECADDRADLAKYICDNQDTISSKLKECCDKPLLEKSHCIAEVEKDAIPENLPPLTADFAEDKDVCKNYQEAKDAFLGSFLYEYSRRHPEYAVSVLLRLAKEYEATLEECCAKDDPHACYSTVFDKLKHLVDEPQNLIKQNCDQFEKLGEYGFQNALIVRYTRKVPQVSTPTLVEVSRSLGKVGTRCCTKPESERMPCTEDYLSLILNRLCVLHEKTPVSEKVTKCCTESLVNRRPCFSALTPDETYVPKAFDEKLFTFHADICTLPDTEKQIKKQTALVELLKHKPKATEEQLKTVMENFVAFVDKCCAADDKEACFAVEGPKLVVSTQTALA
The experiment in a line: Eu-labelled antibody on BSA-coated control wells.

human α2 integrin with endogenous hamster β1 on CHO cells (human; hamster), sequence (P17301 30-1181 E534K): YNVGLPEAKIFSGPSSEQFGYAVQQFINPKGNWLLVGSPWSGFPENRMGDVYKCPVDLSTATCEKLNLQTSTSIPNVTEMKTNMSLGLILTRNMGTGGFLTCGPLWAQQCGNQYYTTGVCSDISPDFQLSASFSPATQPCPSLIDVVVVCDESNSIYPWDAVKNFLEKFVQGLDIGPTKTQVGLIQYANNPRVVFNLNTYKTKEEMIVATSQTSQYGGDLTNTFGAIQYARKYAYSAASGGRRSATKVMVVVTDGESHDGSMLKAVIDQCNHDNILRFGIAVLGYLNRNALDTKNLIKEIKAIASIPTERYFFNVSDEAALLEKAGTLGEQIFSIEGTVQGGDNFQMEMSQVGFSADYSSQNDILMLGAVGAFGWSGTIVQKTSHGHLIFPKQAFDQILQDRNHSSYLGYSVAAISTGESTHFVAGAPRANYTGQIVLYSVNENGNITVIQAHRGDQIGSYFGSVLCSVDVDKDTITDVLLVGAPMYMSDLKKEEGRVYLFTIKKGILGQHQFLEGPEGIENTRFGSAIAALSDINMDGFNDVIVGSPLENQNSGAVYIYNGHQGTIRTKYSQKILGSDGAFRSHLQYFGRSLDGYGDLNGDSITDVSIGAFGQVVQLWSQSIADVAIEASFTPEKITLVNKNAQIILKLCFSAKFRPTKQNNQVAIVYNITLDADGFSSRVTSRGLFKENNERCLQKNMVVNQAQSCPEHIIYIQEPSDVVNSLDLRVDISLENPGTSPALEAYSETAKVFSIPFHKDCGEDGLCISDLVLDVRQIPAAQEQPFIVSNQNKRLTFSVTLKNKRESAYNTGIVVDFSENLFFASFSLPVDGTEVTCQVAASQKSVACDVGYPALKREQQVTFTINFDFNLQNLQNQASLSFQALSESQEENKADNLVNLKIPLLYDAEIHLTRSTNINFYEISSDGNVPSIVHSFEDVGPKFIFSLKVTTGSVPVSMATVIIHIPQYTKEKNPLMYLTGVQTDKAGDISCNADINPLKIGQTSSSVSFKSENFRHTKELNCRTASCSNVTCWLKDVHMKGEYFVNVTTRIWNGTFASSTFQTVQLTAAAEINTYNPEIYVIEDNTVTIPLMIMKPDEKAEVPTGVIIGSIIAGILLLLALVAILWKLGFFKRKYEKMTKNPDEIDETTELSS
T1 sequence (P17301 30-1181 E534K limits assumed, chain 1 of 2): as the sequence (P17301 30-1181 E534K) above
T1 sequence (P05556 21-798 limits assumed, chain 2 of 2): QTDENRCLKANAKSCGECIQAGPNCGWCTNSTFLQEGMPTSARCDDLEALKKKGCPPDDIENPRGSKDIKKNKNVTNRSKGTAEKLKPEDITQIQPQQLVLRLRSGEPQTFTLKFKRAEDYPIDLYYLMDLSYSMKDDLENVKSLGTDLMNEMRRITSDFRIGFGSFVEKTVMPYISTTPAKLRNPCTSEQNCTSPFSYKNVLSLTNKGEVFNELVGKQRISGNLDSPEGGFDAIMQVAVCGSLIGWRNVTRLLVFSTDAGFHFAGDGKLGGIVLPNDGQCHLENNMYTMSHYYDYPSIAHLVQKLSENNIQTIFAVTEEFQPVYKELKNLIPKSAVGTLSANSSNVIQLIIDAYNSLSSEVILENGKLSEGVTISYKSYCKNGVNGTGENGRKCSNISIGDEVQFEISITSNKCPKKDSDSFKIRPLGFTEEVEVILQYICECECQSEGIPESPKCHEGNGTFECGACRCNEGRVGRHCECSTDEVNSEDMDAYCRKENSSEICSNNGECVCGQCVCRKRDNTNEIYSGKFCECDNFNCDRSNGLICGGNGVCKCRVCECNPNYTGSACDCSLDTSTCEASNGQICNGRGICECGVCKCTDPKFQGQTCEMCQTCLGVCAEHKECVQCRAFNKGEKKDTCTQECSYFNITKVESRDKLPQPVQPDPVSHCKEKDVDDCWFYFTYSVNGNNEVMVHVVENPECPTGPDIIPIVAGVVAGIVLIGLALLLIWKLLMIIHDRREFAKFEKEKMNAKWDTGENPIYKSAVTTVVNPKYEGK
rat α2β1 integrin on rat blood cells, sequence (chain, as listed by the source, chain 1 of 2): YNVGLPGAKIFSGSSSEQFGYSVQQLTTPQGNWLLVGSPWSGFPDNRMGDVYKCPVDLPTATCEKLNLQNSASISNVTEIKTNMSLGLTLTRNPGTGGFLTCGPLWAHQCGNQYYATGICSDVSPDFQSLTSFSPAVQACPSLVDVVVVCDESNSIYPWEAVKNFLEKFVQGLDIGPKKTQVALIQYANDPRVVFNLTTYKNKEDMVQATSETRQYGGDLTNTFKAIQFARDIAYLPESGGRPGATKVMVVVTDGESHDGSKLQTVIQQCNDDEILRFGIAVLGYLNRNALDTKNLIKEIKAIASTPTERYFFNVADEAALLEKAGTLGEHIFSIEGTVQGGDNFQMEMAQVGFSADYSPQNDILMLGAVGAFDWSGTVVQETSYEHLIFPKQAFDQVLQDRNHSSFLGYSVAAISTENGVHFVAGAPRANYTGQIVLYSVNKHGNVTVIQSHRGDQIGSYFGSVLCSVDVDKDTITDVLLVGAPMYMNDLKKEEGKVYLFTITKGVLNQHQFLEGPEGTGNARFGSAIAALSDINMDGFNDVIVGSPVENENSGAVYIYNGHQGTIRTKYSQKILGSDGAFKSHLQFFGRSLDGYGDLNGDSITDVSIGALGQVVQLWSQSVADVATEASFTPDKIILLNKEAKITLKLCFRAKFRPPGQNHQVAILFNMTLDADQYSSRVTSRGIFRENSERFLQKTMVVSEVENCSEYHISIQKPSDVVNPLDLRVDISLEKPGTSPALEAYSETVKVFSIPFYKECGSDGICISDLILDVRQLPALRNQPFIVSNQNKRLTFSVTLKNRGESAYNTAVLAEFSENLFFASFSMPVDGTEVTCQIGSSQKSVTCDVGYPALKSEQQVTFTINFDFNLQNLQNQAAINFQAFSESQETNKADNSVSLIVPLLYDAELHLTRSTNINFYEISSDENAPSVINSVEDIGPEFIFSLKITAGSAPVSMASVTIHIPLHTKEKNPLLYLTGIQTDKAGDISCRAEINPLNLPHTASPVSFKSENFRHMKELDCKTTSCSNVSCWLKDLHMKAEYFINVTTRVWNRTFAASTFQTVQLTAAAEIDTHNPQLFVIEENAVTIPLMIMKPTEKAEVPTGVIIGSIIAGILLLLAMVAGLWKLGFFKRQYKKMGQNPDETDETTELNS
rat α2β1 integrin on rat blood cells, sequence (P49134 21-798, chain 2 of 2): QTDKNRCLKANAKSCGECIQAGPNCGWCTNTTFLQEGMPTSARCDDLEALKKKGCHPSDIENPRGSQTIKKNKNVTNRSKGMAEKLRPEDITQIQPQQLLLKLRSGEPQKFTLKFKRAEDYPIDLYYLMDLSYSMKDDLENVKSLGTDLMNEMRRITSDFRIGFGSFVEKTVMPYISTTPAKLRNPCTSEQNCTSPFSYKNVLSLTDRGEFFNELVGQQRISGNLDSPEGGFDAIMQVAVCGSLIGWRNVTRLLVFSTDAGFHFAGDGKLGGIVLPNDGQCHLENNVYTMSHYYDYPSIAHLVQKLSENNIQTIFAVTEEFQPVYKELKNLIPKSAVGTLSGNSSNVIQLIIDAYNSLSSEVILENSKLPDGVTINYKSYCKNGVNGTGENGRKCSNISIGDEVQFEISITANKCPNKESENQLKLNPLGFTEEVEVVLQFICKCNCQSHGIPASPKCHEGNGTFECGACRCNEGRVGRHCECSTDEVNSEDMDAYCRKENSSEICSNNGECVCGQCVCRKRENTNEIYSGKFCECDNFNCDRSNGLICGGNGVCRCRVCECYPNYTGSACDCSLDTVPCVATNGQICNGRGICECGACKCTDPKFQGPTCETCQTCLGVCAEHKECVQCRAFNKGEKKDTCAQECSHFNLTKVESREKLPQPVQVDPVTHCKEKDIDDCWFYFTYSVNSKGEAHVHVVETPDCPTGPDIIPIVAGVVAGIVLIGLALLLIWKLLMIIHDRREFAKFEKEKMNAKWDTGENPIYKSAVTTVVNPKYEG

B1: TMC-2206 (antibody, mouse IgG1, V domains shown)
VH: QVQLKESGPGLVAPSQSLSITCTVSGFSLTNYGIHWVRQPPGKGLEWLGVIWARGFTNYNSALMSRLIITKDNSQSQVFLKMNSLQPDDSATYFCARANDGVYYAMDYWGQGTSVTVSS
VL: QFVLTQSPAFLSASPGEKVTMTCSANSSVNYIHWYQQKSGTSPKKWIYDTSKLASGVPVRFSGSGSGTSYSLTISSMETEDAATYYCQQWTTNPLTFGAGTRVELK
notes: murine IgG1/κ secreted by hybridoma BHA2.1; labelled with Eu-N1-ITC where used as tracer; also called BHA2.1
Take B1: in experiment [1], the “EC50, inhibition of adhesion of CHO-α2 cells to collagen Type I” value was 1.2 nM and the “EC50, inhibition of cell adhesion to collagen” value turned out to be 1.5 nM. In experiment [2], the “EC50, inhibiting binding of rat platelets to rat collagen Type I” value was found to be 6.3 nM and the “fold shift, rat compared to human platelets” value is roughly 5 fold. The inhibition constant (Ki) in experiment [3] was found to be 0.11 nM. Moreover, the Ki in experiment [4] was found to be 0.28 nM. Further, the binding result with BSA is recorded as “no binding”.

What is called Ki is the dissociation constant of the complex between target and ligand, obtained from inhibition or displacement. A higher Ki goes with lower affinity.
